Assays:
human serum albumin [1] = biological target: T1, human serum albumin (human, UniProt P02768); assay: SPR, pH 7.4
cynomolgus serum albumin [2] = biological target: T2, cynomolgus serum albumin (cynomolgus); assay: SPR, pH 7.4
T2 chain: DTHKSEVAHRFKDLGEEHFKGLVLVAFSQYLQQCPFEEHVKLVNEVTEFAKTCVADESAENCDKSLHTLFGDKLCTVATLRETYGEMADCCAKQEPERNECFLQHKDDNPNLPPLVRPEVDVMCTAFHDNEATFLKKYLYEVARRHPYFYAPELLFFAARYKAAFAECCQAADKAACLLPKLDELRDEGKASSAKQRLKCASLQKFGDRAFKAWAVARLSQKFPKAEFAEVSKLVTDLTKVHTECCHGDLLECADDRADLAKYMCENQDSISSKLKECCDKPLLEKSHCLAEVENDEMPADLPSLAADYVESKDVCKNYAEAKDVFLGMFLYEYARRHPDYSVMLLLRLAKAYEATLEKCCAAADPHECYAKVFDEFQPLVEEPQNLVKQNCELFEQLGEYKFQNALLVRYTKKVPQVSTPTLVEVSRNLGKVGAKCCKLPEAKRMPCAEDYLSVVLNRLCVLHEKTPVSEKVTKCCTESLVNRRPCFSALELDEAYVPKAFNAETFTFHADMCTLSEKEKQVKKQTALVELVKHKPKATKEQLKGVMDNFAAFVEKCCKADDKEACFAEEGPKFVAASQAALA

cynomolgus serum albumin [3] = biological target: T2, cynomolgus serum albumin; assay: SPR, pH 5.5
human serum albumin [4] = biological target: T1, human serum albumin; assay: SPR, pH 5.5

Kd (human serum albumin [1]): 2.69 nM | Kd (cynomolgus serum albumin [2]): 2.47 nM | Kd (cynomolgus serum albumin [3]): 0.795 nM | Kd (human serum albumin [4]): 1.66 nM
B1: A5 HSA arm (antibody)
chain 1: EVQLVESGGGLVQPGGSLRLSCAASGIDFSTYGISWVRQAPGKGLEWIAYIYPDYGITDYASWVNGRFTISLDNAQNTVYLQMNSLRAEDTAVYYCARSGSYYSRGWGAHYFNLWGQGTLVTVSSASTKGPSVFPLAPSSKSTSGGTAALGCLVKDYFPEPVTVSWNSGALTSGVHTFPAVLQSSGLYSLSSVVTVPSSSLGTQTYICNVNHKPSNTKVDKKVEPKSCGGGGSGGGGSDIQMTQSPSSLSASVGDRVTITCQASQTINYWLAWYQQKPGKAPKLLIYRASTLASGVPSRFSGSGSGTDFTLTISSLQPEDFATYYCQNYYYSTSRSYGFGGGTKLTVLGGGGGSGGGGSGGGGSGGGGSEVQLVESGGGLVQPGGSLRLSCAASGFSFSSDYWMCWVRQAPGKGLEWIGCIYAGDVDDTDYASWARGRFTISRDNSKNTVYLQMNSLRAEDTAVYYCARVDGFDITYFDLWGQGTLVTVSS
chain 2: DIQMTQSPSSLSASVGDRVTINCQASESISSWLAWYQQKPGKRPKLLIYKASTLASGVPSRFSGSGSGTDYTLTISSLQPEDFATYYCQGYYLDSSVDDNVFGGGTKLTVLGRTRTVAAPSVFIFPPSDEQLKSGTASVVCLLNNFYPREAKVQWKVDNALQSGNSQESVTEQDSKDSTYSLSSTLTLSKADYEKHKVYACEVTHQGLSSPVTKSFNRGECGGGGSGGGGSDIQMTQSPSSLSASVGDRVTITCQSSESVYSNNQLSWYQQKPGQPPKLLIYDASDLASGVPSRFSGSGSGTDFTLTISSLQPEDFATYYCAGGFSSSSDTAFGGGTKLTVLGGGGGSGGGGSGGGGSGGGGSEVQLVESGGGLVQPGGSLRLSCAASGFSLSSNAMGWVRQAPGKGLEYIGIISVGGFTYYASWAKGRFTISRDNSKNTVYLQMNSLRAEDTATYFCARDRHGGDSSGAFYLWGQGTLVTVSS
